Experiment [1] deals with T1, FcγRIa extracellular domain with C-terminal His tag (human, UniProt P12314 16-292).
T1 construct: extracellular domain; Expressed in FreeStyle293 cells; analyte in the SPR assay; also called FcgRI; 1a
As to the kind of experiment: SPR (Biacore), relative binding, HeCon Ab = 100.

Experiment [2] addresses T2, FcγRIIb extracellular domain with C-terminal His tag (human, UniProt P31994 43-217).
T2 construct: extracellular domain; Expressed in FreeStyle293 cells; analyte in the SPR assay; also called FcgRIIb; 2b
T2 sequence (looked up): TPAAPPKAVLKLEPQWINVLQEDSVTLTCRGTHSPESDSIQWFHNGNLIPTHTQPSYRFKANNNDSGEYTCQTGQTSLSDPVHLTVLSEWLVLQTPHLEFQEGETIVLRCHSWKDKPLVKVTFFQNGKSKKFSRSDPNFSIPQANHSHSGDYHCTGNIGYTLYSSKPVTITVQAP
Description: SPR (Biacore), relative binding, HeCon Ab = 100. For orientation: In SPR one partner is held on a chip, and binding of the other changes the refractive index at the surface.

Experiment [3] concerns the target T1, FcγRIa extracellular domain with …. As to the kind of experiment: SPR (Biacore); He/Con_1a divided by He/Con_2b (FcγRIa against FcγRIIb).

T1 sequence (P12314 16-292): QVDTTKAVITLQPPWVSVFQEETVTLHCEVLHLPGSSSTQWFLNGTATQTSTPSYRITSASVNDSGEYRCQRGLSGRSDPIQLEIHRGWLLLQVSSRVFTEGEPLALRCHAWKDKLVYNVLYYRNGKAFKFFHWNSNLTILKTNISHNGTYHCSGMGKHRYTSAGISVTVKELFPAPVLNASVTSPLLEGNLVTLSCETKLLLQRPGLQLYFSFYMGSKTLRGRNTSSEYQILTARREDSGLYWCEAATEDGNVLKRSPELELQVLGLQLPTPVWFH

B1: GpH7-A5/GpH7-B3 variant L234_11K/GpL16-k0 (He Ab) (antibody, human IgG1, kappa)
heavy 1: not shown
heavy 2: not shown
light: DIVMTQSPLSLPVTPGEPASISCQASESLVHSNRNTYLHWYLQKPGQSPQLLIYKVSNRFSGVPDRFSGSGSGTDFTLKISRVEAEDVGVYYCSQNTHVPPTFGQGTKVEIERTVAAPSVFIFPPSDEQLKSGTASVVCLLNNFYPREAKVQWKVDNALQSGNSQESVTEQDSKDSTYSLSSTLTLSKADYEKHKVYACEVTHQGLSSPVTKSFNRGEC
notes: He Ab: mutation in one H chain only
Regarding B1, in experiment [1], the He/Con_1a was 91.8 % of HeCon Ab (=100). The He/Con_2b in experiment [2] was 16.2 % of HeCon Ab (=100). Besides, the “He_1a/2b (Ia/IIb)” value in experiment [3] was found to be 5.67 ratio.

B2: GpH7-A5/GpH7-B3 variant L234_01G/GpL16-k0 (He Ab) (antibody, human IgG1, kappa)
heavy 1: not shown
heavy 2: not shown
light: DIVMTQSPLSLPVTPGEPASISCQASESLVHSNRNTYLHWYLQKPGQSPQLLIYKVSNRFSGVPDRFSGSGSGTDFTLKISRVEAEDVGVYYCSQNTHVPPTFGQGTKVEIERTVAAPSVFIFPPSDEQLKSGTASVVCLLNNFYPREAKVQWKVDNALQSGNSQESVTEQDSKDSTYSLSSTLTLSKADYEKHKVYACEVTHQGLSSPVTKSFNRGEC
notes: as for B1
For the molecule B2, the He/Con_1a in experiment [1] was 96.1 % of HeCon Ab (=100). The He/Con_2b in experiment [2] was 50.7 % of HeCon Ab (=100). Besides, the “He_1a/2b (Ia/IIb)” value in experiment [3] amounted to 1.9 ratio.

B3: GpH7-A5/GpH7-B3 variant L234_12R/GpL16-k0 (He Ab) (antibody, human IgG1, kappa)
heavy 1: not shown
heavy 2: not shown
light: DIVMTQSPLSLPVTPGEPASISCQASESLVHSNRNTYLHWYLQKPGQSPQLLIYKVSNRFSGVPDRFSGSGSGTDFTLKISRVEAEDVGVYYCSQNTHVPPTFGQGTKVEIERTVAAPSVFIFPPSDEQLKSGTASVVCLLNNFYPREAKVQWKVDNALQSGNSQESVTEQDSKDSTYSLSSTLTLSKADYEKHKVYACEVTHQGLSSPVTKSFNRGEC
notes: as for B1
For the molecule B3, the He/Con_1a in experiment [1] is 91.8 % of HeCon Ab (=100). Moreover, the He/Con_2b in experiment [2] was 18.9 % of HeCon Ab (=100). The “He_1a/2b (Ia/IIb)” value in experiment [3] turned out to be 4.86 ratio.

B4: GpH7-A5/GpH7-B3 variant L234_02A/GpL16-k0 (He Ab) (antibody, human IgG1, kappa)
heavy 1: not shown
heavy 2: not shown
light: DIVMTQSPLSLPVTPGEPASISCQASESLVHSNRNTYLHWYLQKPGQSPQLLIYKVSNRFSGVPDRFSGSGSGTDFTLKISRVEAEDVGVYYCSQNTHVPPTFGQGTKVEIERTVAAPSVFIFPPSDEQLKSGTASVVCLLNNFYPREAKVQWKVDNALQSGNSQESVTEQDSKDSTYSLSSTLTLSKADYEKHKVYACEVTHQGLSSPVTKSFNRGEC
notes: as for B1
In the case of B4, the He/Con_1a in experiment [1] was 97.5 % of HeCon Ab (=100). Also, the He/Con_2b in experiment [2] was 64.9 % of HeCon Ab (=100). Besides, in experiment [3], the “He_1a/2b (Ia/IIb)” value amounted to 1.5 ratio.

B5: GpH7-A5/GpH7-B3 variant G236_04F/GpL16-k0 (He Ab) (antibody, human IgG1, kappa)
heavy 1: not shown
heavy 2: not shown
light: DIVMTQSPLSLPVTPGEPASISCQASESLVHSNRNTYLHWYLQKPGQSPQLLIYKVSNRFSGVPDRFSGSGSGTDFTLKISRVEAEDVGVYYCSQNTHVPPTFGQGTKVEIERTVAAPSVFIFPPSDEQLKSGTASVVCLLNNFYPREAKVQWKVDNALQSGNSQESVTEQDSKDSTYSLSSTLTLSKADYEKHKVYACEVTHQGLSSPVTKSFNRGEC
notes: as for B1
With B5, the He/Con_1a in experiment [1] was 96.4 % of HeCon Ab (=100). The He/Con_2b in experiment [2] is 39.3 % of HeCon Ab (=100). Moreover, in experiment [3], the “He_1a/2b (Ia/IIb)” value turned out to be 2.45 ratio.

B6: GpH7-A5/GpH7-B3 variant L234_07I/GpL16-k0 (He Ab) (antibody, human IgG1, kappa)
heavy 1: not shown
heavy 2: not shown
light: DIVMTQSPLSLPVTPGEPASISCQASESLVHSNRNTYLHWYLQKPGQSPQLLIYKVSNRFSGVPDRFSGSGSGTDFTLKISRVEAEDVGVYYCSQNTHVPPTFGQGTKVEIERTVAAPSVFIFPPSDEQLKSGTASVVCLLNNFYPREAKVQWKVDNALQSGNSQESVTEQDSKDSTYSLSSTLTLSKADYEKHKVYACEVTHQGLSSPVTKSFNRGEC
notes: as for B1
On to B6, for which, in experiment [1], the He/Con_1a was 103 % of HeCon Ab (=100). Further, the He/Con_2b in experiment [2] was 80.9 % of HeCon Ab (=100). Further, the “He_1a/2b (Ia/IIb)” value in experiment [3] was determined as 1.27 ratio.

B7: GpH7-A5/GpH7-B3 variant L235_12R/GpL16-k0 (He Ab) (antibody, human IgG1, kappa)
heavy 1: not shown
heavy 2: not shown
light: DIVMTQSPLSLPVTPGEPASISCQASESLVHSNRNTYLHWYLQKPGQSPQLLIYKVSNRFSGVPDRFSGSGSGTDFTLKISRVEAEDVGVYYCSQNTHVPPTFGQGTKVEIERTVAAPSVFIFPPSDEQLKSGTASVVCLLNNFYPREAKVQWKVDNALQSGNSQESVTEQDSKDSTYSLSSTLTLSKADYEKHKVYACEVTHQGLSSPVTKSFNRGEC
notes: as for B1
Consider B7, for which the He/Con_1a in experiment [1] was 78 % of HeCon Ab (=100). Moreover, the “He_1a/2b (Ia/IIb)” value in experiment [3] is 8.12 ratio.

The values are drawn from patent US20150344570A1 (published 2015).
